Experiment: soluble on expression in E. coli; label from the status in PepcDB or PDB records
For “MAVPPTYVDLGKSARDIFTKGYGFGLIKLDLKTRSENGLEFKSSGSANTETSKVAGTLETKYKWAEHGLTFTEKWNTDNTLGTEITLEDQLTKGLKLTFDSSFSPNTGKKSGKIKSSYQREHINLGCDVDYDINGTAVHGALVLGLDGWLAGYQMTFEAGRNRITQSNFAVGYKTDEFQLHTNVNDGTEFGGSIYQKVNDNLETAVNLAWTAGNSNTRFGIAAKYQIDSDAAFSAKVNNSSLVGLGYTQTLKPGIKLTLSALLDGKNINAGGHKMGLGLEFEA”, the “soluble on expression in E. coli” value was “soluble”. For “SGPWANICAGKSSNEIRTCDRHGCGQYSAQRSQRPHQGVDVLCSAGSTVYAPFTGMIVGQEKPYQNKNAINNGVRISGRGFCVKMFYIKPIKYKGPIKKGEKLGTLLPLQKVYPGIQSHVHIENCDSSDPTAYL”, the “soluble on expression in E. coli” value was “soluble”. In the case of “MARSRRDKNVSLTKVKKKTKDTKNNLVNEVRASVDQYKNLFIFTIANMRSTRFIAIRQKYKENSRFFFGKNNVISIALGKQKSDEYANQLHKASAILKGQCGLMFTNMSKKEVEAEFSEASEEDYARVGDVATETVVLPEGPISQFAFSMEPQLRKLGLPTKLDKGVITLYQQFEVCKEGEPLTVEQAKILKHFEVKMSQFRLIFKAHWNKKDGFKELDA”, the “soluble on expression in E. coli” value is reported as “not soluble”. With “MEYHLRTKLNGNIAMTSCFHENSFLQCDRSLYKFIWVRHGALDVEVDHVVMHLEKEEMISLTPLHHVQIRGVDGEYLTFLFNSNFYCIYGHDSEVSCNGFLFNGSSRVMRLKLSPSQSARLDSIVDIFRGECGIQDNLQEEMLRIILKRFIITCTRIAREKFDVDPGRENMFDVIRQFYVLVDSHFKEKKQVQDYADMLCRSPKTISNLFSLYGLSSPLRVIHERVDAEAKRLLLYTGKSAKEISEILGFEDLATFSRFFKKMNKESLSEYRKREKRE” the “soluble on expression in E. coli” value was “not soluble”. For “MAHHHHHHMTSVLAVVNARRVWRGASVLQPAVSSSYPPEVDALLVEGGRISFIGSTAEVQQRYGALVAAQPVDAAAAAPQPVEGGRPRTVSHRVIDCEHRHAVYPGFIDSHVHFLDGGRMLLAPQLGFATSRTQFTAIVRDFVEHRYNREEGGWVYGVGWSEAVLGCSPTREWLDEVSTKIHLVMYSKDIHSAVMNTAALRSCHIIPGAEDGEPLITSVEGGVIELNENGQPSGVLRDNAIQLAKRYAPAADTPANQRRALEAATEHLLSLGFTSVFSMMSTTYMDNVSEINFLAQMEREGAMRLRVRYGVPLSDVERLMDKFYRVMATDAAQSGRSDDFTLPYRFTMTPPAAGGGYLLLGAVKLFADGSLSSRTAAMNRPYGYNVTTEGDIDSDLDDAAISALLKERSGKQCQCGLLTMSRLELQCAIRVAHSHDLQCVVHAIGDRAVATVNRALCASADWLRERGAEAGVVAAVARFRADPRSRVEHCQHMSSMTKEVKRMAQYGIIASMQPCHLLFDGDYVDTLLGQRRKDTSYMWGTLLAAKIRVDLGSDWPVAPADVNDGLRGAVTRVPDVMTALAAEEAQYRSQQQAQPSADNTAACAATALRRYHDTWNPAECISMDAALRTYTYEGAHGMFMENYLGTLEVGKYADITVWTADWLDDAEMEQMAGVEGANARWWPRHREPHVAYTIVGGVVEYDRSH”, the “soluble on expression in E. coli” value was “not soluble”. In the case of “MEYRSLTLDDFLSRFQLLRPQINRETLNHRQAAVLIPIVRRPQPGLLLTQRSIHLRKHAGQVAFPGGAVDDTDASAIAAALREAEEEVAIPPSAVEVIGVLPPVDSVTGYQVTPVVGIIPPDLPYRASEDEVSAVFEMPLAQALHLGRYHPLDIYRRGDSHRVWLSWYEQYFVWGMTAGIIRELALQIGVKPMGHHHHHHSH”, the “soluble on expression in E. coli” value is reported as “not soluble”. For “MSLIRKFSSKDLDAVEEIEREAFKTPYPTSLILGFWSMYPNCFYVAEIDGRVVGYILGSMDWGNGHIISLAVKKECRGLGIGTALLKTLENYYFNIANCNYIVLEVRVSNVLARRFYYRMGYRDRKLLPKYYEDGEDAILMIKKKPNAKGPLIITLWEGHHHHHH”, the “soluble on expression in E. coli” value was “soluble”. For “MGSDKIHHHHHHMIRLFEYDSKQAQSLSQVPVHQPSIIRVIHGEKSLLWQDESVLVGQGQLLLIPAGSHISFVNRPFLGRYRAVQLLLPHDLPQGILSSTADWRDPMPVQNVSRAVDLAWNALLQSLSLSLADSVQLHYLAALLLSLPDKRSVNWLYGHTQRSVTQAALALMSVSPSAPWQQEEIADKLHMSTASLRRKLVLEDTSFRQLLVEVRLSHGLAMLQNSGEPLLQVALACGYQSAEKFSLRFKQQFGLTPAAYRRTL”, the “soluble on expression in E. coli” value was “not soluble”. In the case of “RNVSFRMQPIRIPMGMIGGFIGGQIDEMISTSKDRRIDWSEVYSKDTLYGRGNSG”, the “soluble on expression in E. coli” value is reported as “soluble”.

— the DeepSol protein solubility set
